From US20120244563A1 (J OIL MILLS, published 2012)

Legend:
[1] = target: T1, Haptoglobin from human serum (human, UniProt P00738 19-406, limits assumed, N-linked and O-linked glycans containing almost no fucose); test: ELISA; glycoprotein coated at 10 ng/mL, biotin-labeled lectin
T1 construct: Natural haptoglobin is processed into α and β chains; also called Haptoglobin (HP); Serum HP
T1 sequence (looked up): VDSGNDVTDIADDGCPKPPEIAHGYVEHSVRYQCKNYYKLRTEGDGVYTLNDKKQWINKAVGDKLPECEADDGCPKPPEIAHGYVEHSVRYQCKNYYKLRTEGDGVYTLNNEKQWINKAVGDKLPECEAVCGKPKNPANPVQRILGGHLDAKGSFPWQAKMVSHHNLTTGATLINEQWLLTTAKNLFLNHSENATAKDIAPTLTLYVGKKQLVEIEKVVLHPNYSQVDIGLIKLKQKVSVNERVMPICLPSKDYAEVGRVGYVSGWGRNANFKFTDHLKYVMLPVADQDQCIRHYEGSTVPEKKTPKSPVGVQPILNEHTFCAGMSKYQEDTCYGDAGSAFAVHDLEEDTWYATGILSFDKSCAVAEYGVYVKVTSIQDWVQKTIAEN
Procedure: (§1) Serum glycoprotein (human serum albumin (CALBIOCHEM), Immunoglobulin G (Sigma), transferrin (Sigma), fibrinogen (AbD Serotec), Immunoglobulin A (BETYL) α2-macroglobulin (BMO), Immunoglobulin M (ROCKLAND), Complement C3 (CALBIOCHEM), haptoglobin (BIODESIGN), α1-acidic glycoprotein (Sigma), α-fetoprotein (Fitzgerald), α-fetoprotein L3 (Wako Pure Chemical Industries, Ltd) and prostate-specific antigen (Scipac) were dissolved in PBS at 1 mg/mL, and further diluted to 10 ng/mL with 0.1 M carbonate buffer (pH 9.5). Fifty μL of the diluted solution was added to a microtiter plate (Nunc 439454), and then incubated at 37° C. for 1 hour. After washed once with 0.05% Tween 20 (polyoxyethylene sorbitan monolaurate) (hereafter abbreviated as Tween)/PBS, 200 μL, of 1% bovine serum albumin (BSA)/PBS was added to the wells, and then incubated at 37° C. for 1 hour. The plate was washed twice with 0.05% Tween/PBS.
(§2) Fifty μL of the biotin labeled lectin solution prepared to 1 μg/mL with 1% BSA/0.05% Tween/PBS was added to the wells, and then left at room temperature for 1 hour. After washed twice with 0.05% Tween/PBS, 50 μL of the HRP labeled streptavidin solution (1 μg/mL) diluted with 1% BSA/0.05% Tween/PBS was added to the wells, and then left at room temperature for 30 minutes. After washed three times with 0.05% Tween/PBS, 50 μL of the HRP chromogenic substrate (product name: TMB Peroxidase substrate system, KPL) was added, and then left at room temperature for 5 minutes.
(§3) The absorbance values at 450 nm were subtracted by the absorbance value from the well on the plate in which no glycoprotein was immobilized, and the resulting values were taken as reaction values. Affinity was ranked by classifying the reaction values according to the following criteria.

Human serum albumin [2] = target: T2, Human serum albumin (human, UniProt P02768 25-609); test: as above
T2 construct: Bought protein coated on the plate; also called HAS
Procedure: as §1, §2, §3

Fibrinogen = target: T3, Fibrinogen; test: ELISA; coated glycoprotein, biotin-labeled lectin 1 µg/mL; grade of A450 reaction value (Low 0.1 to 0.2, Moderate 0.2 to 0.5, High 0.5 or more)
T3 construct: Bought protein coated on the plate; also called FB
Procedure: as §1, §2, §3

Complement C3 = target: T4, Complement C3; test: as above
T4 construct: Bought protein coated on the plate
Procedure: as §1, §2, §3

α1-Acid glycoprotein = target: T5, α1-Acid glycoprotein; test: as above
T5 construct: Bought protein coated on the plate; also called AGP; α1-acidic glycoprotein
Procedure: as §1, §2, §3

[3] = target: T1, Haptoglobin from human serum; test: as above
Procedure: as §1, §2, §3

α2-Macroglobulin = target: T6, α2-Macroglobulin; test: as above
T6 construct: Bought protein coated on the plate; also called α2MG
T6 sequence (P01023 24-1474, species assumed, looked up): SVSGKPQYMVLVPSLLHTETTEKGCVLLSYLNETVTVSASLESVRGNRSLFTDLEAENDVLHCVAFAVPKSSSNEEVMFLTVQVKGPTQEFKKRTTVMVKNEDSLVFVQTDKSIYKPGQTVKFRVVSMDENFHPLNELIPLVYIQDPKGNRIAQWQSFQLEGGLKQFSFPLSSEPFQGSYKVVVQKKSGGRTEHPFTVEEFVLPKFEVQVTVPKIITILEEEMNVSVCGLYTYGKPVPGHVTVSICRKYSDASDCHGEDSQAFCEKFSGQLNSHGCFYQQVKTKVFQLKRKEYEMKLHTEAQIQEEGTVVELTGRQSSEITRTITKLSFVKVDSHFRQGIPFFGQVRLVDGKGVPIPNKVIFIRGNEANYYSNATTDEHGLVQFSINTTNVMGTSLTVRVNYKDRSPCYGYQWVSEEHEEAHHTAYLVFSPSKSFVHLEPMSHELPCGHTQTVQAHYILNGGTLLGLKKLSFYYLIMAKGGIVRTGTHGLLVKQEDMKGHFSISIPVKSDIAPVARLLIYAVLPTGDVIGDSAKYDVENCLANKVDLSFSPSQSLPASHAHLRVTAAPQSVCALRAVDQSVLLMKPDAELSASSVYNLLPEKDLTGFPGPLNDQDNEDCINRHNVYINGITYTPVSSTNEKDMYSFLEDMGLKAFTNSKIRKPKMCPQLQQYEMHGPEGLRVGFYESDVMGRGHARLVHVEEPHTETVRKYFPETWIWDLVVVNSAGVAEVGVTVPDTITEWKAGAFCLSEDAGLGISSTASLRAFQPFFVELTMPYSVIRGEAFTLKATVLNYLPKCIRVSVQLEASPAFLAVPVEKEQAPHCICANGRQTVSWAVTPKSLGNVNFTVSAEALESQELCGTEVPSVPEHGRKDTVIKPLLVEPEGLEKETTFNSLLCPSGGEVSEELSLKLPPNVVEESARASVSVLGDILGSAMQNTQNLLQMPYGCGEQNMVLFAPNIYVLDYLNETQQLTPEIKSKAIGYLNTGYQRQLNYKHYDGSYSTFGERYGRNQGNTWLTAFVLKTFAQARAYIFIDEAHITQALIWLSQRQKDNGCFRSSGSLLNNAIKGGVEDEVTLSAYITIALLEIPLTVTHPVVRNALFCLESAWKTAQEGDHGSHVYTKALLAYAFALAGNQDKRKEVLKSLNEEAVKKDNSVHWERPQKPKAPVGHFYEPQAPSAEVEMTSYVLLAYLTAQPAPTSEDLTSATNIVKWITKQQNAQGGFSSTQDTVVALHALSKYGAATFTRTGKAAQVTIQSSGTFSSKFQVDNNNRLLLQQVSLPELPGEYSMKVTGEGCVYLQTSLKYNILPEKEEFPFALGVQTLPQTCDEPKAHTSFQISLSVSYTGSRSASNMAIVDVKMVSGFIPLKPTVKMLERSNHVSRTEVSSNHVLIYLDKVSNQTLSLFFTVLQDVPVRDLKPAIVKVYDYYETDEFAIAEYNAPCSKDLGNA
Procedure: as §1, §2, §3

Immunoglobulin A = target: T7, Immunoglobulin A; test: as above
T7 construct: Serum glycoprotein coated on the plate; also called IgA
Procedure: as §1, §2, §3

Transferrin = target: T8, Transferrin; test: as above
T8 construct: Bought protein coated on the plate; also called TF
Procedure: as §1, §2, §3

Immunoglobulin G = target: T9, Immunoglobulin G; test: as above
T9 construct: Serum glycoprotein coated on the plate; also called IgG
Procedure: as §1, §2, §3

Immunoglobulin M = target: T10, Immunoglobulin M; test: as above
T10 construct: Serum glycoprotein coated on the plate; also called IgM
Procedure: as §1, §2, §3

Human serum albumin [4] = target: T2, Human serum albumin; test: as above
Procedure: as §1, §2, §3

T2 sequence (P02768 25-609 limits assumed): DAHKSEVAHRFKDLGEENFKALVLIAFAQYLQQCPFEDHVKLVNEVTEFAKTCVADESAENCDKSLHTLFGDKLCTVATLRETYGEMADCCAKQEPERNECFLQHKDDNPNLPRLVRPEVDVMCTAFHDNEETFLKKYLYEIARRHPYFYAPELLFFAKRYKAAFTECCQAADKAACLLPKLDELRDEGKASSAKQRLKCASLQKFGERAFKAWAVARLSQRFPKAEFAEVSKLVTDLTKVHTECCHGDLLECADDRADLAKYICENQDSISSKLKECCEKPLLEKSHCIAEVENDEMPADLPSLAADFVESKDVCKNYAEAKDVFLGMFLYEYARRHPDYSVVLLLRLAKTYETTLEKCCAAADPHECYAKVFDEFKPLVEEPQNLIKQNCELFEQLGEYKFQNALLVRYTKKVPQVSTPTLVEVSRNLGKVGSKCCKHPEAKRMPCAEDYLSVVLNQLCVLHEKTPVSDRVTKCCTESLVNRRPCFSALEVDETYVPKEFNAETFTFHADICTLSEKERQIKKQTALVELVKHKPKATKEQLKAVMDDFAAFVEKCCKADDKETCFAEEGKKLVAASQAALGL
T4 sequence (P01024 23-667, chain 1 of 2): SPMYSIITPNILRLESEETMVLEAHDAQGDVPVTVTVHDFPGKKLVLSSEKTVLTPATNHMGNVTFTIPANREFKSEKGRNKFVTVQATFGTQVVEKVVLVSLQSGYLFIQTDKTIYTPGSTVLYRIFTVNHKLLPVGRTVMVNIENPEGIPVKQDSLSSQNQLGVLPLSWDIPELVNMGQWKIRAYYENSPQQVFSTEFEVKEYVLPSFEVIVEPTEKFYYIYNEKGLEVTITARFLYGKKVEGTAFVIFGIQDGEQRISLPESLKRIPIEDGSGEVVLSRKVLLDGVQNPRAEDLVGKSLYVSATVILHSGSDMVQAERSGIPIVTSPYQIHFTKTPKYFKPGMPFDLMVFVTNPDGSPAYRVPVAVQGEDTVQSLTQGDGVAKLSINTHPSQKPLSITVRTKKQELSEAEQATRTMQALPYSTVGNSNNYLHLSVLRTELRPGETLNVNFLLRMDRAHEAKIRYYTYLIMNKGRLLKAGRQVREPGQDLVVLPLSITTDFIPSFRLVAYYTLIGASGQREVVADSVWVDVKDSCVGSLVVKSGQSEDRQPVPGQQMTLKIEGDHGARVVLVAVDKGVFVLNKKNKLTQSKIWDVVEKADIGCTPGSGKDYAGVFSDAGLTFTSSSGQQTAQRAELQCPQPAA
T4 sequence (P01024 672-1663, chain 2 of 2): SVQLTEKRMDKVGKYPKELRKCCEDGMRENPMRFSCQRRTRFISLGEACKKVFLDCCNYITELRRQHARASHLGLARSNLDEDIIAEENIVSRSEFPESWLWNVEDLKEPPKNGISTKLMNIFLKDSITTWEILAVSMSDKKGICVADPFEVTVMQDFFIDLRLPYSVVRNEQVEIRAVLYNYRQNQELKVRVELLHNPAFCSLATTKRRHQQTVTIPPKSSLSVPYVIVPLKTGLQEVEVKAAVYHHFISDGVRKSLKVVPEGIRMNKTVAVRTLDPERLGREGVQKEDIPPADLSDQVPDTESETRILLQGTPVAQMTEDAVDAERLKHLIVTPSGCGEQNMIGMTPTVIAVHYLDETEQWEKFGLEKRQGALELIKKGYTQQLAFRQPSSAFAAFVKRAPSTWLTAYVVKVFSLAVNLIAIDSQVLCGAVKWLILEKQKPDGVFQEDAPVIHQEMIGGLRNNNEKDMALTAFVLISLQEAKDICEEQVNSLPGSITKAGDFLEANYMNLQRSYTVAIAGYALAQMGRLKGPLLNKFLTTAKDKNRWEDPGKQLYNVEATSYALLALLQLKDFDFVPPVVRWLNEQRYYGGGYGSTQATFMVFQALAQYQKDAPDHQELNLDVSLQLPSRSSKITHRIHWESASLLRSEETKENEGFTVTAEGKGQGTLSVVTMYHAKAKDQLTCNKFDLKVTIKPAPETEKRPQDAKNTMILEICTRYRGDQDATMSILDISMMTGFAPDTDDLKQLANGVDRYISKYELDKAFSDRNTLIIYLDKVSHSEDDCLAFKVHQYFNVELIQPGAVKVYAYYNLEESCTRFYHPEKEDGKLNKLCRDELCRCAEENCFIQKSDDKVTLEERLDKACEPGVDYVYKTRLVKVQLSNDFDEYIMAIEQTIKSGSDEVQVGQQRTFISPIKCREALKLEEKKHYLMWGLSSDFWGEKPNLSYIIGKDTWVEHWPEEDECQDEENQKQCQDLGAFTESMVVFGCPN
T8 sequence (P02787 20-698): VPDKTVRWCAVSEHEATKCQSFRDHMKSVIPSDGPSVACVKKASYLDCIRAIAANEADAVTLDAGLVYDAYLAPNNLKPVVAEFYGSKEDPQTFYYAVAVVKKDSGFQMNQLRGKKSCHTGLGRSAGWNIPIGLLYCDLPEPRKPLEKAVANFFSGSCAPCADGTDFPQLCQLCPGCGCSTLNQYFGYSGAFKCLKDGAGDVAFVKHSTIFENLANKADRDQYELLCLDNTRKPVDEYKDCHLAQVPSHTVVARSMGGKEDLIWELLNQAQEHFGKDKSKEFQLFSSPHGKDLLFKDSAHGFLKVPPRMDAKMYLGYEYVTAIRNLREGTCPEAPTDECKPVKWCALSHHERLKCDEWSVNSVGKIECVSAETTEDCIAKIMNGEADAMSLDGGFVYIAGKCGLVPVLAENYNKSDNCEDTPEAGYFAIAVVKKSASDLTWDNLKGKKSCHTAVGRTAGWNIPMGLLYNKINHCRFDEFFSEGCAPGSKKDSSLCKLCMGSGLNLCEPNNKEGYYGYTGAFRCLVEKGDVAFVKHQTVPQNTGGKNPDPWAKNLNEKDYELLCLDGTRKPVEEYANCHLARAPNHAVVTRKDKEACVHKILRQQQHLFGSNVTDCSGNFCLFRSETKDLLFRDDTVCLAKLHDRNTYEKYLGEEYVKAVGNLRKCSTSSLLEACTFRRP
T5 sequence (P02763 19-201): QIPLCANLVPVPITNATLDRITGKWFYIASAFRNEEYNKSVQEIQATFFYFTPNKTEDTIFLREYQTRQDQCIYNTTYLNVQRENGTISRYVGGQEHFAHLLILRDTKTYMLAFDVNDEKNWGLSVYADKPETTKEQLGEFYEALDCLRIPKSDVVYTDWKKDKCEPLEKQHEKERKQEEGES

B1: Ulex europaeus lectin (other, UniProt P22972 1-243, looked up)
chain: SDDLSFKFKNFSQNGKDLSFQGDASVIETGVLQLNKVGNNLPDETGGIARYIAPIHIWNCNTGEVASFITSFSFFMETSANPKAATDGLTFFLAPPDSPLRRAGGYFGLFEDTKDNDSSYQTVAVEFDTIGSPVNFDDPGFPHIGIDVNRVKSINAERWNKRYGLNNVANVEIIYEASSKTLTASLTYPSDQTSISVTSIVDLKEILPEWVSVGFSGGTYIGRQATHEVLNWYFTSNLINTNS
modifications: biotin label (site not stated)
notes: Bought, biotin-labeled; also called UEA-I; UEA- 1
binding result [1]: no binding
binding result (Human serum albumin [2]): no binding

B2: Aleuria aurantia lectin (other, UniProt P18891 2-313, looked up)
chain: PTEFLYTSKIAAISWAATGGRQQRVYFQDLNGKIREAQRGGDNPWTGGSSQNVIGEAKLFSPLAAVTWKSAQGIQIRVYCVNKDNILSEFVYDGSKWITGQLGSVGVKVGSNSKLAALQWGGSESAPPNIRVYYQKSNGSGSSIHEYVWSGKWTAGASFGSTVPGTGIGATAIGPGRLRIYYQATDNKIREHCWDSNSWYVGGFSASASAGVSIAAISWGSTPNIRVYWQKGREELYEAAYGGSWNTPGQIKDASRPTPSLPDTFIAANSSGNIDISVFFQASGVSLQQWQWISGKGWSIGAVVPTGTPAGW
modifications: biotin label (site not stated)
notes: Bought, biotin-labeled; also called AAL
reaction value (absorbance at 450 nm minus blank) (Fibrinogen): 0.1 to 0.2 od
reaction value (absorbance at 450 nm minus blank) (Complement C3): 0.1 to 0.2 od
reaction value (absorbance at 450 nm minus blank) (α1-Acid glycoprotein): 0.2 to 0.5 od
reaction value (absorbance at 450 nm minus blank) [3]: 0.1 to 0.2 od
reaction value (absorbance at 450 nm minus blank) (α2-Macroglobulin): ≥ 0.5 od
reaction value (absorbance at 450 nm minus blank) (Immunoglobulin A): 0.2 to 0.5 od
reaction value (absorbance at 450 nm minus blank) (Transferrin): 0.1 to 0.2 od
reaction value (absorbance at 450 nm minus blank) (Immunoglobulin G): 0.1 to 0.2 od
reaction value (absorbance at 450 nm minus blank) (Immunoglobulin M): 0.2 to 0.5 od
reaction value (absorbance at 450 nm minus blank) (Human serum albumin [4]): 0.1 to 0.2 od

B3: Lens culinaris lectin (other)
chain 1: TETTSFSITKFSPDQKNLIFQGDGYTTKGKLTLTKAVKSTVGRALYSTPIHIWDRDTGNVANFVTSFTFVIDAPSSYNVADEFTFFIAPVDTKPQTGGGYLGVFNSKEYDKTSQTVAVEFDTFYNAAWDPSNKERHIGIDVNSIKSVNTKSWNLQNGERANVVIAFNAATNVLTVTLTYP
chain 2: VTSYTLNEVVPLKDVVPEWVRIGFSATTGAEFAAHEVHSWSFHSELGGTSSS
modifications: biotin label (site not stated)
notes: Bought, biotin-labeled; The natural lectin is processed into alpha and beta chains; also called LCA
binding result (Human serum albumin [2]): no binding
